Measurements taken from paper PMC10802294 (bioRxiv, 2024).
Side chains are listed from the residue outwards. Ends that are not written are not given here. * marks the point of attachment. Biotin = O=C1N[C@H]2[C@H](CS[C@H]2CCCCC(=O)*)N1; RADP = not defined here; Aoa = not defined here

Legend:
[1] = biological target: SARS-CoV-2 Mac1 protein (WT) (SARS-CoV-2, UniProt P0DTC1 1023-1197); assay: AlphaScreen or HTRF
[2] = biological target: MERS-CoV Mac1 protein (WT) (MERS-CoV, UniProt K9N638 1110-1273); assay: AlphaScreen or HTRF
Chain of MERS-CoV Mac1 protein (WT) (K9N638 1110-1273): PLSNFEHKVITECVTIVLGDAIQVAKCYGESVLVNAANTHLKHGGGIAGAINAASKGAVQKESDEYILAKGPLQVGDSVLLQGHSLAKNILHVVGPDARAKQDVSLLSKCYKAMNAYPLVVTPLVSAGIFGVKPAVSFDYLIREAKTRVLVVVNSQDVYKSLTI

**Q.** Does ARTK(Biotin)QTARK([Aoa-RADP])S (reading uncertain) [10 amino acid biotinylated and ADP-ribosylated peptide [ARTK(Bio)QTARK(Aoa-RADP)S]] bind [1]?
**A.** binds

**Q.** Does ARTK(Biotin)QTARK([Aoa-RADP])S (reading uncertain) [10 amino acid biotinylated and ADP-ribosylated peptide [ARTK(Bio)QTARK(Aoa-RADP)S]] bind [2]?
**A.** binds
